The values that follow come from a protein production outcome set (Wang et al. 2014).

The data set can be described thus: label from the status in PepcDB records.
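Note: failed if final PepcDB status was selected cloned or expressed and not failed if soluble or beyond.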

Take “MEESLKVGIAGLGTVGSSVVRILREKANSLTCQCGRSIKVVAVSARDKSRNRGIDLSDVKWFDSPVEMASSDEIDVFVELIGGESDVVYAAVKKALETGHHVVTANKALLAQHGGRLAVSAEKKGVFLHFEAAVAGGIPIIKVMRESLVSNHISRIYGILNGTCNYILTRMFTEGLSFKECLEDAQRLGYAEVDPTFDIGGNDTAHKLALLTSLAFGTAVSLDDIYVEGISNISQIDIRAADELGYRIKLLGVALKTETGIEQRVHPTMVPTSSMIAQIHGVTNALSIQSDLLGELLLSGPGAGGTATASAVIGDLADIAKARPGFQYAPVLGRPALGLAPHKKARISHHAGGYFIRLNVHDRAGVFAAVAKHMAGNHISLESIVQRSFVESQSVKTIILITHETTEVNVQQALAAIEKDGHLVAKSQFIRIEPMVLEHHHHHH”: the protein production result is listed as “failed”. The value for “MEETRPIDGLTDEDIREILTRYKKIALVGASPKPERDANIVMKYLLEHGYDVYPVNPKYEEVLGRKCYPSVLDIPDKIEVVDLFVKPKLTMEYVEQAIKKGAKVVWFQYNTYNREASKKADEAGLIIVANRCMMREHERLLGEK” was “not failed”; that for “MEEVLPNVYLIDTLKYVEPGVISAYAVVHERAAIIDPGTAKGAEIILDEIDRSWNVEYICPTHIHIDHGGGAARLAKALDAKIIVHPRGVKHVVNPEKLWEASKAVLGEVAEIYGKPESIDESKVIAVEDEQEFDLGGERLKVFHAPGHAPHMLVYYLTNSKVLFPADAVGMCFGGVVFPLTPPPFDADAALKTLKRLKGLKVDYVAFTHYGVVEGDWPIAKSYEKVKSWLEIAKEVANANGTVEEFVGRLRKEDEDVEKLFNVLGSKPVALSFIYTSATGMLDAARRMIE” was “failed”; that for “MEFLGSLLTFLIDIVGSFGYFGILLIVGLEYACFPLPSEVVLTFFGLSASQGEFSLIGVIIFSIIGGLLGSLICYAIGYYGGVPLQEWLGRKFPSSQKSMLALNKWFKKYGKPAVLLARIVPLTRTYVSLLAGAEKFSLKYFILYSSLGISIWNIFLVSLGYFIGDNLPLINSIMEKYTFVTLAILIIAVIIFIYLKFFKKEKNTSK” was “failed”. Turning to “MEFLSLVIVVVAAFMTPIIVHRFNINFLPVVVAEILMGIVIGHSFLNLVERDAFLNILSTLGFIFLMFLSGLEIDFNAFKKDSRPRQGEDKHEKDVPGHLKLALTVFAFIMMISVVLAFAFKWLGLVNDVLLMVIIISTISLGVVVPTLKEMNIMRTTIGQFILLVAVLADLFTMILLTVYGAIYGEGGSTIWLTGILVVFTVVFYVIGVLFKRMSFLQKLMDGTTQIGIRAVFALIILLVALAEGVGAEYILGAFLAGVVVSLLKPNEEMVEKLDSFGYGFFIPIFFIMVGVDLDIPSLIKEPSLLLIIPVLIFSFIISKLIPVFYIRRWFDTKTTIASAFLLTSTLSLVIAAAKIAEKLKAISPETSGILILSAVITCVFVPVIFKKMFPIPNEVGRRIEVSMIGKNQLTIPIAQNLTSQLYDISLYYRKDLSDSRKLSDDITMIEIADYEEDLLERLGLFERDIVVCSTNDDHINKSVALMAKKHGVKRVICRLESTNEDPTLKHQGIEVFSNYLSNKILLKSLIETPNMLNLLSNVETSLYEIQMLNYQYENIQLRNFPFGGDIIFVRIIRDNDSIVPHGDTQLRYKDRLIVTGTKEYVDELKQELEFYY”, the protein production entry is given as “failed”.

Turning to “MEFNQFGQPIGHAIQQPIPGKFKAQSLIGNDVNLVLIEQDRVALKNVEQLWDCIKTEPDERCWTYLPYEAPETFRQLEYNLKRNFGFEPSFHYWIMVEGQAVGWIALMNLREQHAAVEIGNVYFSHRLKQTAAATEVIYLLLNHCFEQGLRRIEWKCDDLNGPSKRAALRFGFVYEGLFRQDRVSKGRNRDTTWFSIIDSEWASLKTAYLQWLNPDNFNHAGKQKKRLEDFIVT”, the protein production entry was “failed”. Then “MEFQLWGAKIVIEPKPDLRYLYLEITNRCNLKCEMCFKQYWEDKEGDMDWDLFLKILDDAKEFPELKMIYFGGIGEPSVHPRFMDMVREVKRRGFRLGMSTNGVLLEDKILEEFVKLGVDVVYFSMDAIPTPSNIVTLGHITSKVVESRIKKLVELKKRYKTEKPTIGVEVVATKENYKQLPEMAIYLRNLGVDSMLISNLIPMTKEHSKAIVYDGSVDMTPIVNELHQIAEGGPFMRIAEFKLRTNRYCDFIENNVTVVRWDGEVFPCYRFLHTYPEVIFGREKKVIAHSFGNVKEKSLKDIWMSEEYVRFRFLVKASAYPSCIDCPLNTSCSFALDTTQDCWGTSPSCGDCLWSRGIVLCPIPFEYMGKFL”, with “failed”; and “MEFQSTVVATVDCQKQVRSWRLLRSFIQLLIPTCNCTLVQELEQDNTNLRGKKLYNDIKSRTSSFRSSSSLSSSTVTGTIFGYRKGKINFCIQTPRKSTNLDLLLELAVPTTVLAREMREGALRIVLERNNEKQDDDSFLSKPFWNMYCNGKRVGYARKRSPSQDDMTALTALSKVVVGAGVVTGKELGRFDDELMYLRASFRRVNGSKESESFHLIDPAGNIGQELSIFIVPSSV”, with “failed”. The value for “MEFSLIADTVTVCTAKQGIAFGKSLLQRLDLANHISFADSVVDHQSPGGGIVQASAIIFPVDAIAPPPVRSSSYKTIRRIRKKRRTRRVSFGGDGDDAGDFGRFLLEGDFGGSDGPFGFGGGGNDGGGKGWNYGGGGGGFGRDNWDGSSFSSWSDPAMEFVYEVICWIALSNCVHFAFKRIVRIVTDGEREKLNIALSPVC” was “failed”; that for “MEGLESVYAQAMYGMTRESKIMEHQGSDLIWGGNELMARELCSSSSYHHQLINPNLSSCFMSDLGVLGEIQQQQHVGNRASSIDPSSLDCLLSATSNSNNTSTEDDEGISVLFSDCQTLWSFGGVSSAESENREITTETTTTIKPKPLKRNRGGDGGTTETTTTTTKPKSLKRNRGDETGSHFSLVHPQDDSEKGGFKLIYDENQSKSKKPRTEKERGGSSNISFQHSTCLSDNVEPDAEAIAQMKEMIYRAAAFRPVNFGLEIVEKPKRKNVKISTDPQTVAARQRRERISEKIRVLQTLVPGGTKMDTASMLDEAANYLKFLRAQVKALENLRPKLDQTNLSFSSAPTSFPLFHPSFLPLQNPNQIHHPEC” was “failed”. “MEHIEIRVSATGSMSSFHALCSFHQWPINVACSCWLSHCYRIYSLYPPQLVSCSDRLSTSGNTNAGAEFVTE”: the protein production result was “failed”.

For “MEHSNLRKKHNYKFTISTLTLSCLMAFNAQAAVDCSPLEAWDAGKVYNGGEEVKQGTNAYKAKYWTQNNDPATAGEWGAWQDLGVCSGEVPNEAPTVDLTSPSATEQLTTGDLVTLTASAADSDGNIVRVDFSVDGVVISSVTASPYSTTWTALEGNHTISAQSYDDKGAQSTVSSVAINVTNTPTDNIAPTATLSLSATNVELGSVVTLTADAVDSDGTIDKVDFYIDNTLVGTAATAPYTLQYTTTAVGSLSVYAKATDNLGATANSASTNLTVTSSLPVADNCRPDGLYQTEGVTVPYCTIYDKEGREKMGADHPRRVIGYFTSWRDGGDEQNSYLVKDIPWEQLTHINYAFVSIGSDGKVNVGDVTDPNNAATGKEWAGVEIDPALGFKGHFGALATAKAKHGVKTLISIGGWAETGGHFGADGNRVADGGFYTMTTNADGSINHAAIEKFAVSAVEMMRKYKFDGLDIDYEYPTSMAGAGNPDDKEFMEPRRQYLWASYQVLMKTLREKLDVASAQDDIHYMLTIAAPSSGYLLRGMETFDVTQYLDYVNIMSYDLHGAWNDHVGHNAALYDTGKDSELAQWNVYGTEAYGGIGYLNTDWAYHYFRGSMPAGRINIGVPYYTRGWQGVTGGENGLWGRAPLPDQAKCEPGTGEGEKNNCGYGALGIDNMWHDKNSYGQEMGAGSNPMWHAKNLQEGIFGSYANIYGLDPANDPADQLVGTYTRHYDSVAVAPWLWNAEKKVFLSTEDKDSINVKADYVIDQEIGGIMFWELAGDYSCYVLDSNGNRTSVDATEAACQTGNGEYHMGNTMTKAIYEKFKSATPYGNTVATGAIPTETVDIAVNVGGFKVGDQNYPINPKVTFTNNTGQDIPGGTEFQFDIPVSAPDNAKDQSGGGLQVIASGHTRPNNIGGLDGTMHRVAFTLPAWKALPAGGVYELDMVYYLPISGPANYTVNINNVDYAFKFEQPDLPLADLSSGGNNGGNGGTPDAGCDATGLVTYPDLPQKDWAGNPSHANTGDQVVHNNVIYQANWWTAAEPGSDGSWTKVCNL”, the protein production result was “failed”.
